# Ends that are not written are not given here.
# B1: peptide GPRPC linked to human albumin microspheres (peptide)
# peptide: GPRPC
# modifications: also: Cys5 thiol bound to human albumin microspheres (DTNB-activated thiol)
# Key:
# fibrinogen = target: T1, fibrinogen (Homo sapiens, UniProt P02675+P02679); test: Fibrinogen binding assay: FITC-labelled anti-human fibrinogen antibody, flow cytometry; conditions: for Percent positive (percentage of microspheres positive for fibrinogen): flow cytometry, FITC rabbit anti-human fibrinogen antibody; for Median fluorescence intensity: measure of the amount of fibrinogen bound to the microspheres
# T1 construct: purchased Scottish National Blood Transfusion Service
# T1 sequence (P02671 20-629 partner limits assumed): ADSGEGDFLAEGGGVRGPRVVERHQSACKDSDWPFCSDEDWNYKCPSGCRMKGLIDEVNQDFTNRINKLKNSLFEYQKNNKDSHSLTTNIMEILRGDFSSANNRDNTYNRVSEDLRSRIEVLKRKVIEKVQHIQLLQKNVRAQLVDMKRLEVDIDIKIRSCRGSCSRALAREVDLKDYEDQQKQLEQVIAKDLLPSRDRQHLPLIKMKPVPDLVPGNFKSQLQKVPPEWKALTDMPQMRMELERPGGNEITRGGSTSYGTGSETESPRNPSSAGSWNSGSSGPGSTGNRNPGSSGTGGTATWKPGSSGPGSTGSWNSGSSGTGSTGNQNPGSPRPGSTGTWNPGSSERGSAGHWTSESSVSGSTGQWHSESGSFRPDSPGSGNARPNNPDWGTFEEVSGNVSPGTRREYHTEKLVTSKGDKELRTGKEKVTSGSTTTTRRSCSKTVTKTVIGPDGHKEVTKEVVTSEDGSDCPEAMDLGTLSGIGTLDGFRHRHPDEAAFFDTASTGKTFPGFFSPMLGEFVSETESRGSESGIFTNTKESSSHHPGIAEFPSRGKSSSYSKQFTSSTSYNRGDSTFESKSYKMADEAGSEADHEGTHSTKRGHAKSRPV
# T1 sequence (P02675 31-491): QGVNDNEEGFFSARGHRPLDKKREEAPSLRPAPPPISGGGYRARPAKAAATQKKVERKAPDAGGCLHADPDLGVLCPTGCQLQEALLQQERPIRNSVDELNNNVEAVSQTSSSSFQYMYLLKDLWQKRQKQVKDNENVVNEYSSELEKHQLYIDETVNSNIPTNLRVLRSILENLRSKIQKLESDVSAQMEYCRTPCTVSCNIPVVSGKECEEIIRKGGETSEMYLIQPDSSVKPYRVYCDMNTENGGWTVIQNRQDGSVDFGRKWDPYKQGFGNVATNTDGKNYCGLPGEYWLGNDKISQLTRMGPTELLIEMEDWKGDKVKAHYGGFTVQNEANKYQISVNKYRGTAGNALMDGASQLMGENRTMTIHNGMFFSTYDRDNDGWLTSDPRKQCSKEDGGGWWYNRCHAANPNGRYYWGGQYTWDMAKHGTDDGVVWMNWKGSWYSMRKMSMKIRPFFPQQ
# T1 sequence (P02679 27-437 isoform P02679-2 limits assumed): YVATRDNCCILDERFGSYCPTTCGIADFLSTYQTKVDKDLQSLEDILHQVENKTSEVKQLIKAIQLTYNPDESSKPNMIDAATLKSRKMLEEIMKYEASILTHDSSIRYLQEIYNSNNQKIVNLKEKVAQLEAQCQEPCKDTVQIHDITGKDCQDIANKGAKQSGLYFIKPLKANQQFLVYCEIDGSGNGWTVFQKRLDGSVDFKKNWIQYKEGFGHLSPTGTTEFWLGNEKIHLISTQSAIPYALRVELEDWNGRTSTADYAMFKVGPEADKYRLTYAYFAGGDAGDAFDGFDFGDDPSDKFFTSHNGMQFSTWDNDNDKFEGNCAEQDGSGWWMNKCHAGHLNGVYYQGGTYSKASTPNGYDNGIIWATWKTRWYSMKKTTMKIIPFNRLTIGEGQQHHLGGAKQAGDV
# Description: 2. Fibrinogen Binding Assay
# (i) 5 μl of a suspension of artificial platelets obtained from step (iv) of method 1 above was added to 50 μl of HEPES buffered saline containing 1 μl of FITC-labelled rabbit antibody to human fibrinogen (DakoCytomation; F0111). The mixture was incubated at 20° C. for 20 minutes. Blank microspheres (without DTNB treatment or peptide) or a cysteine control sample were used as a negative control for these assays.
# (ii) After 20 minutes the reaction was stopped by the addition of 0.5 ml saline. After a further 10 minutes, the sample was diluted 1/10 in saline and analysed in a Flow Cytometer (e.g. Coulter XL-MCL Flow Cytometer).
# (iii) Data were recorded as the percentage of microspheres positive for fibrinogen and the median fluorescence intensity of the particles. The latter is a measure of the amount of fibrinogen bound to the microspheres and is in arbitrary units (log scale).
# fibrinogen (human) [1] = target: fibrinogen (human) (UniProt P02671); test: flow cytometry, FITC anti-human fibrinogen; albumin microspheres without peptide, coated directly with 10 mg/ml fibrinogen at pH 6.0
# Chain of fibrinogen (human) (P02671 20-629 limits assumed, chain 1 of 3): as the sequence (P02671 20-629 partner limits assumed) above
# Chain of fibrinogen (human) (P02675 31-491 limits assumed, chain 2 of 3, further chain): as the sequence (P02675 31-491) above
# Chain of fibrinogen (human) (P02679 other isoform, or with tags, fused parts or gaps limits assumed, chain 3 of 3, further chain): as the sequence (P02679 27-437 isoform P02679-2 limits assumed) above
# fibrinogen (human) [2] = target: fibrinogen (human) (UniProt P02671); test: flow cytometry, FITC anti-human fibrinogen; albumin microspheres without peptide, fibrinogen bound directly to the surface
# thrombin = test: Response of products to thrombin in platelet-free plasma (light transmission aggregometer); format: biochemical, human; conditions: increase in light transmission over 20 minutes, mean ± sd of 4 experiments
# Description: Cross-linking of the agent of the invention via fibrin-fibrin bridging can be tested in a modified aggregation assay, for example, a protocol based on Levi et al, 1999, Nature Medicine, […], 107-111. The method that we used is reported below.
# The assay was performed using a light transmission aggregometer (we used a PAP4 aggregometer (BioData Corporation)). […] Aggregation of the microspheres causes an increase in light transmission, which can be recorded as percentage “aggregation” relative to plasma alone.
# The microspheres can be counted using a particle counter such as a Flow cytometer (e.g. Beckman Coulter MCL-XL) or Coulter Z2.
# (ii) Platelet-free plasma was prepared by centrifuging blood for 30 minutes at 1500× g and collecting the supernatant.
# (iii) 350 μl platelet-free plasma was placed in an aggregometer cuvette and 50 μl of blank microspheres were added. […]
# platelets [3] = test: Platelet aggregation in platelet-depleted plasma by counting single platelets in a flow cytometer; format: cell-based, human; conditions: mean ± sd of 3 experiments; for Percentage aggregation in the absence of ADP: inactive platelets, percentage loss of single CD42b-positive platelets from the gate; for Percentage aggregation in the presence of ADP: platelets activated with sub-optimal ADP, percentage loss of single CD42b-positive platelets
# Description: 3.2 Preparation of Platelet-Depleted Plasma
# (i) Two tubes of blood were collected into tri-sodium citrate anticoagulant, by clean venepuncture via a 21 gauge butterfly needle. The blood was processed within 10 minutes of collection, to minimise platelet activation in vitro.
# (ii) One tube of blood was centrifuged at 150× g for 20 minutes at 20° C. to prepare platelet rich plasma (PRP).
# (iii) A second tube of blood was centrifuged at 1500× g for 30 minutes at 20° C. to prepare platelet poor plasma (PPP).
# (iv) The PRP was removed from the blood cell fraction and mixed with the PPP to achieve a platelet count of between 10 and 50×10^6 platelets/ml.
# 4.1 Method for Measuring Aggregation by Counting in a Flow Cytometer
# Flow cytometry can be used to count the number of residual single platelets, and thereby to calculate the percentage of platelets that have bound to artificial platelets. The sample is analysed by the forward and side scatter and an electronic gate is set around the population of single platelets. To do this a sample of platelet-rich plasma is used that contains EDTA to prevent platelet-platelet aggregation occurring. The platelets are labelled with a fluorescently-conjugated antibody such as a CD42b monoclonal that binds to the GPIb receptor on all platelets.
# As aggregation occurs the number of platelets within the gate declines. The artificial platelets should not induce aggregation of non-activated (“resting”) platelets. If, however, the platelets are activated, for example by ADP they should aggregate with the artificial platelets. In this assay a sub-optimal concentration of ADP is used to distinguish the effects of the artificial platelets in platelet-deficient plasma.
# (i) To set the platelet gate, whole blood that had been collected into EDTA was used. 5 μl of EDTA anticoagulated blood was added to 50 μl Hepes-buffered saline and analysed by forward and side scatter in a flow cytometer (e.g. Beckman Coulter MCL-XL). A gate was set around the platelet population so that>98% of the single platelets are contained within the platelet gate.
# (ii) 400 μL of platelet-depleted plasma, with a platelet count of 10-60×10^6/ml, was mixed with 20 μL of control microspheres (blank capsules as disclosed in Example 1, Method 1 (i)) at 10 mg albumin/ml and ADP was added at final concentrations of between 1 and 4×10^−5 M. The sample was stirred at 900 rpm at 37° C. in an aggregometer cuvette for up 10 minutes and aggregation was measured as the change in light transmission (as described in section 4.2 below). The ADP concentration that gave>0% and<20% aggregation was used for the subsequent analysis of the interaction of the product with platelet-depleted plasma.
# (iii) To test the products, 400 μL of platelet-depleted plasma, with a platelet count of 10-60×10^6/ml, was mixed with 20 μL of test microspheres at 10 mg albumin/ml and ADP at a concentration determined as described above. The sample was mixed at 900 rpm for up to 10 minutes. At appropriate times 5 μl aliquots were removed for flow cytometric analysis as follows.
# (iv) For the analysis 5 μl of test sample was added to 50 μ1 Hepes-buffered saline containing an appropriate concentration of a fluorescently-conjugated antibody to an antigen present on all platelets. We used 1 μl of an RPE-conjugated CD42b monoclonal antibody (we used antibody 555473 provided by BD Harlingen). The sample was incubated for 20 minutes at room temperature (typically 20° C. ) then diluted with 0.5 ml formyl saline (0.2% formalin in 0.9% NaCl).
# (v) The diluted sample was then analysed by forward and side scatter in a flow cytometer (e.g. Beckman Coulter MCL-XL) using the gate set around the platelet population in the control sample (see 4.1.i), allowing a fixed volume of sample (e.g. 20 μl) to pass through the cytometer. Particles enclosed in the platelet gate were analysed for fluorescence to identify the number of single platelets within the gate. […]
# platelets [4] = test: Platelet aggregation in platelet-depleted plasma by light transmission (PAP-4 aggregometer); format: cell-based, human
# Description: 4.2 Method for Measuring Aggregation by Light Transmission Using the PAP-4 Platelet Aggregometer
# In this system the product was mixed with platelet-depleted plasma in a stirred system at […] and aggregation was measured by a change in light transmission.
# (i) 400 μl of platelet-depleted plasma was mixed with 20 μl of blank microspheres at 10 mg albumin/ml.
# (ii) ADP was added at concentrations between 1 and 4×10^−5M
# (iii) Aggregation was measured over 20 minutes and recorded as the percentage of maximum using autologous plasma to set the value for 100% aggregation.
# platelets [5] = conditions: purified peptide; cited from earlier work
# fibrinogen (human) [6] = target: fibrinogen (human) (UniProt P02671); test: flow cytometry of peptide-linked albumin microspheres incubated with 3 mg fibrinogen per ml, detected with FITC rabbit anti-human fibrinogen
# [7] = listed as peptide-coupled microspheres
molecule,measurement,setting,value
"Peptide Gly^n = 0: albumin microspheres with bound peptide GPRPC, incubated with 3 mg fibrinogen",Percent positive (percentage of microspheres positive for fibrinogen),fibrinogen,6%
same,Median fluorescence intensity,fibrinogen,2.4 arbitrary units (log scale)
"human albumin microspheres of the reference batch (fibrinogen bound directly to the surface, method of WO 98/17319) (from UniProt P02768 25-609)",Median fluorescence intensity (arbitrary units (log scale)),fibrinogen (human) [1],22
same,Percent positive,fibrinogen (human) [1],94%
same,Median fluorescence intensity (arbitrary units (log scale)),fibrinogen (human) [2],22.4
same,Percent positive,fibrinogen (human) [2],94.7%
"Product 2: albumin microspheres with peptide GPRPGGGGGGC bound, without fibrinogen",Percentage aggregation in the absence of thrombin,thrombin,4.75 ± 4.4%
same,Percentage aggregation in the absence of thrombin,thrombin; listed as 0 mg/ml,4.25 ± 4.93%
same,Percentage aggregation in the absence of ADP,platelets [3],17.8 ± 3.5%
same,Percentage aggregation in the absence of ADP,platelets [3]; listed as 0 mg/ml,17.9 ± 3.45%
same,Percentage aggregation in the absence of ADP,platelets [3]; [7],17.8±3.5%
same,Percentage aggregation in the presence of ADP,platelets [3],57.3 ± 9.3%
same,Percentage aggregation in the presence of ADP,platelets [3]; listed as 0 mg/ml,57.6 ± 7.64%
same,Percentage aggregation in the presence of ADP,platelets [3]; [7],57.3±9.3%
same,Aggregation in the absence of ADP (aggregometry),platelets [4],only low levels of aggregation
same,Percent positive (percentage of microspheres positive for fibrinogen),fibrinogen,13.1%
same,Percent positive (percentage of microspheres positive for fibrinogen),fibrinogen; listed as 0 mg/ml,0%
same,Median fluorescence intensity,fibrinogen,1.6 arbitrary units (log scale)
same,Median fluorescence intensity,fibrinogen; listed as 0 mg/ml,0 arbitrary units (log scale)
"Peptide Gly^n = 6: albumin microspheres with bound peptide GPRPGGGGGGC, incubated with 3 mg fibrinogen",Percent positive (percentage of microspheres positive for fibrinogen),fibrinogen,95%
same,Median fluorescence intensity,fibrinogen,26 arbitrary units (log scale)
"Peptide Gly^n = 3: albumin microspheres with bound peptide GPRPGGGC, incubated with 3 mg fibrinogen",Percent positive (percentage of microspheres positive for fibrinogen),fibrinogen,94%
same,Median fluorescence intensity,fibrinogen,28 arbitrary units (log scale)
TDVNGDGRHDL [Product B12],Effect on platelet aggregation,platelets [5],caused inhibition of platelet aggregation
B1,Median fluorescence intensity (arbitrary units (log scale)),fibrinogen (human) [6],2.4
same,Percent positive,fibrinogen (human) [6],6%
